Experiments:
human CTLA-4 (human) [1] = biological target: human CTLA-4 (human) (UniProt P16410); test: flow cytometry, CHO cells expressing CTLA4
CD28 (human) [2] = biological target: CD28 (human) (UniProt P10747); test: flow cytometry, Jurkat cells (CD28)
human PD-L1 (human) [3] = biological target: human PD-L1 (human) (UniProt Q9NZQ7); test: flow cytometry, CHO cells expressing PD-L1
Target sequence in this assay (Q9NZQ7 19-290): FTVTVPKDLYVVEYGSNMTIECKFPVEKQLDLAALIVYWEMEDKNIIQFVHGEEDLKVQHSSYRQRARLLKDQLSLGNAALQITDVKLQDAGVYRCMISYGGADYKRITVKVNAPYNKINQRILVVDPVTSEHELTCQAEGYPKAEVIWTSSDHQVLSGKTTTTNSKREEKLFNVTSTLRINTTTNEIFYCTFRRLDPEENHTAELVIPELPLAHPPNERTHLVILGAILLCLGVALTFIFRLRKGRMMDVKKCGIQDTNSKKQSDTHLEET

human PD-L1 (human) [4] = biological target: human PD-L1 (human) (UniProt Q9NZQ7); test: flow cytometry, MFI on PD-L1 over MFI on CD28
Target sequence in this assay (Q9NZQ7 19-290): as above

human PD-L1 (human) [5] = biological target: human PD-L1 (human) (UniProt Q9NZQ7); test: flow cytometry, CHO cells expressing huPD-L1
Target sequence in this assay (Q9NZQ7 19-290): as above

human CTLA-4 (human) [6] = biological target: human CTLA-4 (human) (UniProt P16410); test: flow cytometry, CHO cells expressing huCTLA4, vs WT CD80 ECD-Fc (R&D)
CD28 (human) [7] = biological target: CD28 (human) (UniProt P10747); test: flow cytometry, Jurkat/IL2 reporter cells (CD28)
human CTLA-4 (human) [8] = biological target: human CTLA-4 (human) (UniProt P16410); test: flow cytometry, CHO cells expressing huCTLA4
human PD-L1 (human) [9] = biological target: human PD-L1 (human) (UniProt Q9NZQ7); test: flow cytometry, CHO cells expressing huPD-L1, vs WT CD80 ECD-Fc (R&D)
Target sequence in this assay (Q9NZQ7 19-290): as above

CD28 (human) [10] = biological target: CD28 (human) (UniProt P10747); test: flow cytometry, Jurkat/IL2 reporter cells (CD28), vs WT CD80 ECD-Fc (R&D)
human PD-L1 (human) [11] = biological target: human PD-L1 (human) (UniProt Q9NZQ7); test: flow cytometry; PD-L1 MFI over CD28 MFI of the same protein
Target sequence in this assay (Q9NZQ7 19-290): as above

CD28 (human) [12] = biological target: CD28 (human) (UniProt P10747)
human PD-L1 (human) [13] = biological target: human PD-L1 (human) (UniProt Q9NZQ7)
Target sequence in this assay (Q9NZQ7 19-290 limits assumed): as the sequence (Q9NZQ7 19-290) above

human CTLA-4 (human) [14] = biological target: human CTLA-4 (human) (UniProt P16410); test: flow cytometry, CHO cells expressing huCTLA-4
human PD-L1 (human) [15] = biological target: human PD-L1 (human) (UniProt Q9NZQ7); test: flow cytometry, CHO/huPD-L1 cells; vs WT CD80 ECD-Fc (Abcam)
Target sequence in this assay (Q9NZQ7 19-290): as above

CD28 (human) [16] = biological target: CD28 (human) (UniProt P10747); test: flow cytometry, Jurkat cells (CD28); vs WT CD80 ECD-Fc (Abcam)
human CTLA-4 (human) [17] = biological target: human CTLA-4 (human) (UniProt P16410); test: flow cytometry, CHO/huCTLA-4 cells; vs WT CD80 ECD-Fc (Abcam)
[18] = biological target: CD28, endogenously expressed on Jurkat/IL2 reporter cells (human) (UniProt P10747); test: flow cytometry on Jurkat (CD28) cells; MFI relative to WT CD80 (CD80 WT IgV-Fc = 1.0)
[19] = biological target: human CTLA-4 (huCTLA4), on stably transduced CHO cells (human) (UniProt P16410); test: flow cytometry on CHO/huCTLA4 cells; MFI relative to WT CD80 (CD80 WT IgV-Fc = 1.0)
[20] = biological target: human CTLA-4 (huCTLA4), on stably transduced CHO cells (human) (UniProt P16410); test: flow cytometry on CHO cells stably expressing huCTLA4, 33.3 nM Fc fusion, PE anti-human Fc
[21] = biological target: CD28, endogenously expressed on Jurkat/IL2 reporter cells (human) (UniProt P10747); test: flow cytometry on Jurkat/IL2 reporter cells (endogenous CD28), 33.3 nM Fc fusion, PE anti-human Fc
[22] = biological target: human PD-L1 (huPD-L1), on stably transduced CHO cells (human) (UniProt Q9NZQ7); test: flow cytometry on CHO cells stably expressing huPD-L1, 33.3 nM Fc fusion, PE anti-human Fc
[23] = biological target: human PD-L1 (huPD-L1), on stably transduced CHO cells (human) (UniProt Q9NZQ7); test: flow cytometry on CHO/huPD-L1 cells; MFI relative to WT CD80 (CD80 WT IgV-Fc = 1.0)
[24] = biological target: human PD-L1 (huPD-L1), on stably transduced CHO cells (human) (UniProt Q9NZQ7); test: flow cytometry; ratio of MFI on CHO/huPD-L1 cells to MFI on Jurkat (CD28) cells

Chain of human CTLA-4 (human) (P16410 36-223): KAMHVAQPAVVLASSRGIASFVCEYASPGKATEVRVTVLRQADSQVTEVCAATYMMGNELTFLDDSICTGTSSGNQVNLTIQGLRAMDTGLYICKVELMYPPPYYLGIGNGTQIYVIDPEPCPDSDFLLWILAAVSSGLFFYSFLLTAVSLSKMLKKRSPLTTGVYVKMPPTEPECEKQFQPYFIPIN
Chain of human PD-L1 (huPD-L1), on stably transduced CHO cells (human) (Q9NZQ7 19-290): as the sequence (Q9NZQ7 19-290) above
Chain of human CTLA-4 (huCTLA4), on stably transduced CHO cells (human) (P16410 36-223): as the sequence (P16410 36-223) above

Row | Binder | MFI at 33.3 nM (human PD-L1 (human) [5]) | Fold change to WT CD80 (human CTLA-4 (human) [6]) | MFI at 33.3 nM (CD28 (human) [7]) | MFI at 33.3 nM (human CTLA-4 (human) [8]) | Fold change to WT CD80 (human PD-L1 (human) [9]) | Fold change to WT CD80 (CD28 (human) [10]) | further results
1 | CD80 E35D/M47V/N48K/V68M/A71G/L85M IgV-Fc (Fc fusion) VIHVTKEVKEVATLSCGHNVSVEELAQTRIYWQKDKKMVLTMMSGDVKIWPEYKNRTIFDITNNLSIMILGLRPSDEGTYECVVMKYEKDAFKREHLAEVTLSVKAD | – | – | – | – | – | – | Fold change to WT CD80 (human CTLA-4 (human) [1]): 9.5 fold; MFI at 33.3 nM (human CTLA-4 (human) [1]): 16600 MFI; Fold change to WT CD80 (CD28 (human) [2]): 9.6 fold; MFI at 33.3 nM (CD28 (human) [2]): 302 MFI; Fold change to WT CD80 (human PD-L1 (human) [3]): 442 fold; MFI at 33.3 nM (human PD-L1 (human) [3]): 22800 MFI; Ratio of PDL1:CD28 (human PD-L1 (human) [4]): 75.4
2 | variant CD80 IgV-Fc E35D/M47L/A71G/L85M/F92Y (Fc fusion) VIHVTKEVKEVATLSCGHNVSVEELAQTRIYWQKDKKMVLTMMSGDLNIWPEYKNRTIFDITNNLSIVILGLRPSDEGTYECVVMKYEKDAYKREHLAEVTLSVKAD | 46700 MFI | 1.37 fold | 2460 MFI | 216000 MFI | 3.93 fold | 0.14 fold | –
3 | variant CD80 IgV-Fc E35D/D46E/M47V/V68M/D90G/K93E (Fc fusion) VIHVTKEVKEVATLSCGHNVSVEELAQTRIYWQKDKKMVLTMMSGEVNIWPEYKNRTIFDITNNLSIMILALRPSDEGTYECVVLKYEKGAFEREHLAEVTLSVKAD | 71900 MFI | 1.74 fold | 27100 MFI | 273000 MFI | 6.06 fold | 1.5 fold | –
4 | variant CD80 IgV-Fc E35D/D46V/M47V/V68M/L85Q (Fc fusion) VIHVTKEVKEVATLSCGHNVSVEELAQTRIYWQKDKKMVLTMMSGVVNIWPEYKNRTIFDITNNLSIMILALRPSDEGTYECVVQKYEKDAFKREHLAEVTLSVKAD | 26300 MFI | – | 331 MFI | – | – | – | Ratio of PDL1:CD28 (human PD-L1 (human) [11]): 79.4; IL-2 luciferase reporter, fold increase over WT CD80-IgV-Fc at 5.0 nM (CD28 (human) [12]): 8.5 fold; IL-2 luciferase reporter, fold increase over WT CD80-IgV-Fc at 5.0 nM (human PD-L1 (human) [13]): 8.5 fold; MFI at 33.3 nM (human CTLA-4 (human) [14]): 36500 MFI; Fold change to WT CD80 (human PD-L1 (human) [15]): 205 fold; Fold change to WT CD80 (CD28 (human) [16]): 0.5 fold; Fold change to WT CD80 (human CTLA-4 (human) [17]): 0.9 fold

Second part, led by results:

Row | MFI at 33.3 nM (human PD-L1 (human) [5]) | Fold change to WT CD80 (human CTLA-4 (human) [6]) | MFI at 33.3 nM (CD28 (human) [7]) | MFI at 33.3 nM (human CTLA-4 (human) [8]) | Fold change to WT CD80 (human PD-L1 (human) [9]) | Fold change to WT CD80 (CD28 (human) [10]) | Binder | further results
5 | 31200 MFI | 0.74 fold | 644 MFI | 117000 MFI | 2.62 fold | 0.04 fold | variant CD80 IgV-Fc Q33L/E35D/M47I/N48D/A71G (Fc fusion) VIHVTKEVKEVATLSCGHNVSVEELAQTRIYWLKDKKMVLTMMSGDIDIWPEYKNRTIFDITNNLSIVILGLRPSDEGTYECVVLKYEKDAFKREHLAEVTLSVKAD | –
6 | 1590 MFI | 0.03 fold | 336 MFI | 4690 MFI | 0.13 fold | 0.02 fold | variant CD80 IgV-Fc R29H/E35D/M43V/M47I/I49V (Fc fusion) VIHVTKEVKEVATLSCGHNVSVEELAQTHIYWQKDKKMVLTMVSGDINVWPEYKNRTIFDITNNLSIVILALRPSDEGTYECVVLKYEKDAFKREHLAEVTLSVKAD | –
7 | 30700 MFI | 1.64 fold | 3510 MFI | 258000 MFI | 2.58 fold | 0.19 fold | variant CD80 IgV-Fc Q27H/E35D/M47I/L85Q/D90G (Fc fusion) VIHVTKEVKEVATLSCGHNVSVEELAHTRIYWQKDKKMVLTMMSGDINIWPEYKNRTIFDITNNLSIVILALRPSDEGTYECVVQKYEKGAFKREHLAEVTLSVKAD | –
8 | 6800 MFI | – | 501 MFI | – | – | – | variant CD80 IgV-Fc E35D/M47V (Fc fusion) VIHVTKEVKEVATLSCGHNVSVEELAQTRIYWQKDKKMVLTMMSGDVNIWPEYKNRTIFDITNNLSIVILALRPSDEGTYECVVLKYEKDAFKREHLAEVTLSVKAD | Ratio of PDL1:CD28 (human PD-L1 (human) [11]): 13.6; IL-2 luciferase reporter, fold increase over WT CD80-IgV-Fc at 5.0 nM (CD28 (human) [12]): 4.7 fold; IL-2 luciferase reporter, fold increase over WT CD80-IgV-Fc at 5.0 nM (human PD-L1 (human) [13]): 4.7 fold; Fold change to WT CD80 [18]: 7 fold; MFI at 33.3 nM (human CTLA-4 (human) [14]): 44600 MFI; Fold change to WT CD80 [19]: 10.9 fold; MFI at 33.3 nM [20]: 20900 MFI; MFI at 33.3 nM [21]: 461 MFI; MFI at 33.3 nM [22]: 2940 MFI; Fold change to WT CD80 (human PD-L1 (human) [15]): 53.1 fold; Fold change to WT CD80 (CD28 (human) [16]): 0.7 fold; Fold change to WT CD80 [23]: 41.7 fold; Fold change to WT CD80 (human CTLA-4 (human) [17]): 1.1 fold; Ratio of PDL1:CD28 [24]: 6
